Experimental data: patent US20070116702A1, “Survival promoting NCAM binding and MCAM ligand binding compounds” (priority 2001, published 2007)
No end group written: not given here.

Experiments:
[1] = tested on: Hippocampal cells; test: Aggregate cell cultures of hippocampal cells (aggregates counted after 24 h); assay type: cell-based, rat; settings: ligand present during the aggregation of cells; quantified 24 h after seeding
Description: A variety of suitable fragments and variants of NCAM has been discussed above. To be able to identify candidate ligands capable of stimulating NCAM function, where the NCAM function means the function of the NCAM molecule, the inventors have established a simple cell culture system (aggregate cell cultures) that permits a quantitative evaluation of the effect of various ligands. Hippocampal cells are provided from rat embryos. The cells are grown in a defined medium and dissociated cells are seeded in microtiter plates. After 24 h, the, amount of aggregates are counted. Compounds to be tested are added to the cell suspension immediately before seeding of the cells in micro-wells. When NCAM Ig1 binding ligands are present during the aggregation of cells, smaller, but more numerous cell aggregates are seen when quantified 24 h after seeding of the cells. The inhibiting effect of the ligands results in a blockage of the formation of large aggregates from many small aggregates as the adhesion, properties of NCAM are blocked. Thus, small but more numerous cell aggregates are seen in the presence of active ligands.

[2] = target: T1, recombinant NCAM Ig1 domain produced in Pichia pastoris (Ig1 PP) (rat, UniProt P13596 20-116, limits assumed); test: one-bead one-peptide library stained with biotinylated NCAM Ig1
T1 construct: domain: Ig1; unlabelled analyte in the BIAlite experiment; also called NCAM Ig1-PP
Description: The synthesis of the resin-bound one-bead one-peptide library was performed using the portioning, mix procedure (Furka et al., 1991). Polyethylene syringes served as reaction vessels throughout the synthesis and the final TFA-deprotection. TentaGel resin (Rapp Polymere, Tübingen, Germany) was divided into 18 aliquots and the protein L-amino acids except cysteine and histidine were used. Side-chains were protected with the following protecting groups: Asp(tBu), Glu(tBu), Tyr(tBu), Ser(tBu), Thr(tBu), Asn(trt), Gln(trt), Lys(Boc), Trp(Boc), Arg(pmc). Fmoc-protected amino acids (5 eq; Milligen or Novabiochem) were coupled overnight using 5eq DIC and 5eq HOBt. Removal of the Fmoc group was accomplished with 25% piperidine in DMF for 20 min. The side chain protecting groups were removed with […], 5% anisole, 5% H₂O, 5% EDT, 2.5% thioanisole at mom temperature for 2.5 h followed by washing with tetrahydrofuran and 1% HOAc and the resin was subsequently lyophilised. Screenings were done by incubating 2 ml resin (equivalent to ca. 10⁶ beads) with biotinylated receptor in Tris/HCl buffer (Tris/HCl 0.025 M, pH 7.2, 0.25 M NaCl, 0.1 % (w/v) Tween 20) containing 0.1% Gelatin (Sigma) for 60 min. Subsequently the resin was washed in Tris/HCl buffer and incubated with avidin-alkaline phosphatase (diluted 1:20000) for 30 min. The substrates BCIP/NBT (Sigma) were added as described by Lam et al. (1992) and stained beads were removed for micro sequencing. The library was screened with the receptor NCAM Ig1-PP (10 mg/ml).

[3] = target: T1, recombinant NCAM Ig1 domain produced in …; test: SPR (BIAlite), dendrimer peptide immobilised on CM5 chip, Ig1 in solution
Description: Real-time biomolecular interaction analysis was performed using a BIAlite instrument (Pharmacia Biosensor AB, Sweden). All experiments were performed at 25° C. using Hepes buffered saline (HBS: 10 mM Hepes pH 7.4, 150 mM NaCl, 3.4 mM EDTA, 0.005% v/v Surfactant P20 (Pharmacia Biosensor, Sweden) as running buffer. The flow rate was […]. Dendrimer peptides C3d, D3d and D4d (four peptide-monomers coupled to a backbone consisting of three lysines) were immobilised on a sensor chip CM5 (Pharmacia Biosensor AB, Sweden) using the following procedure: the chip was activated by […] 0.05 M N-hydroxysuccinimide, 0.2 M N-ethyl-N′-(dimethylaminopropyl)carbodiimide; peptides were immobilised using […] peptide solution in HBS at a concentration of 60 μg/ml; finally the chip was blocked by 35 μl 1 M ethanolamine hydrochloride pH 8.5. Binding of Ig1 to dendrimer peptides: […] of Ig1 or Ig1I at the indicated concentrations were applied. The chip was regenerated by two […] pulses of 5 mM NaOH. Two independent experiments were performed. The results confirmed that C3d, D3d and D4d bind to the NCAM Ig1 domain.

[4] = target: the molecule itself; test: gel filtration chromatography, homophilic dimer formation

Molecule	binding result [2]	other results
GRILARGEINFK (listed as Homo sapiens) [Ig2-p]	–	inhibition of aggregation of hippocampal cells [1]: inhibited aggregation
AKKERQRKDTQ (listed as Homo sapiens) [D3]	–	inhibition of aggregation of hippocampal cells [1]: inhibited aggregation
ARALNWGAKPK (listed as Homo sapiens) [D4]	–	inhibition of aggregation of hippocampal cells [1]: inhibited aggregation
GEISVGESKFFL (listed as Homo sapiens) [Ig1-p]	–	inhibition of aggregation of hippocampal cells [1]: inhibited aggregation
ARALNWGAKPK [D4 peptide (SEQ ID NO:3)]	binds	–
AGDYNPDLDR [SEQ ID NO 13]	binds	–
ASKKPKRNIKA (also: tetrameric dendrimer: four monomers coupled to a backbone of three lysines, synthesised on Rink amide linker, Immobilised on a CM5 sensor chip in the BIAlite experiment; also called dendrimer peptide C3d) [C3d, tetrameric dendrimer of the C3 peptide]	–	binding result [3]: binds
AYYLIVRVNRI [SEQ ID NO 8]	binds	–
ARKTRERKSKD [SEQ ID NO 14]	binds	–
AKKERQRKDTQ (also: tetrameric dendrimer: four monomers coupled to a backbone of three lysines, synthesised on Rink amide linker, Immobilised on a CM5 sensor chip in the BIAlite experiment; also called dendrimer peptide D3d) [D3d, tetrameric dendrimer of the D3 peptide]	–	binding result [3]: binds
AKKKEQKQRNA [SEQ ID NO 20]	binds	–
AKYVLIPIRIS [SEQ ID NO 5]	binds	–
AQMGRQSIDRN [SEQ ID NO 18]	binds	–
ARQKTMKPRRS [SEQ ID NO 12]	binds	–
Ig1: Recombinant Ig1 domain of rat NCAM produced in Pichia pastoris (protein) LQVDIVPSQGEISVGESKFFLCQVAGDAKDKDISWFSPNGEKLSPNQQRISVVWNDDDSSTLTIYNANIDDAGIYKCVVTAEDGTQSEATVNVKIFQ	–	inhibition of aggregation of hippocampal cells [1]: inhibited aggregation
AKRSVQKLDGQ [SEQ ID NO 11]	binds	–

Molecule	binding result [2]	other results
ARALNWGAKPK (also: tetrameric dendrimer: four monomers coupled to a backbone of three lysines, synthesised on Rink amide linker, Immobilised on a CM5 sensor chip in the BIAlite experiment; also called dendrimer peptide D4d) [D4d, tetrameric dendrimer of the D4 peptide]	–	binding result [3]: binds
ASQAKRRKGPR [SEQ ID NO 15]	binds	–
AKSRKGNSSLM [SEQ ID NO 21]	binds	–
ARKSRDMTAIK [SEQ ID NO 22]	binds	–
NCAM(20-208) first mutant: Glu-30, Glu-35 and Lys-37 substituted with Ala (receptor, UniProt P13596 20-208, looked up) LQVDIVPSQGAISVGASAFFLCQVAGDAKDKDISWFSPNGEKLSPNQQRISVVWNDDDSSTLTIYNANIDDAGIYKCVVTAEDGTQSEATVNVKIFQKLMFKNAPTPQEFKEGEDAVIVCDVVSSLPPTIIWKHKGRDVILKKDVRFIVLSNNYLQIRGIKKTDEGTYRCEGRILARGEINFKDIQVIV	–	binding result [4]: no binding
NCAM(20-208) third mutant: Glu-30, Glu-35, Lys-37, Arg-192, Arg-196 and Glu-198 substituted with Ala (receptor, UniProt P13596 20-208, looked up) LQVDIVPSQGAISVGASAFFLCQVAGDAKDKDISWFSPNGEKLSPNQQRISVVWNDDDSSTLTIYNANIDDAGIYKCVVTAEDGTQSEATVNVKIFQKLMFKNAPTPQEFKEGEDAVIVCDVVSSLPPTIIWKHKGRDVILKKDVRFIVLSNNYLQIRGIKKTDEGTYRCEGAILAAGAINFKDIQVIV	–	binding result [4]: no binding
NCAM(20-208) second mutant: Arg-192, Arg-196 and Glu-198 substituted with Ala (receptor, UniProt P13596 20-208, looked up) LQVDIVPSQGEISVGESKFFLCQVAGDAKDKDISWFSPNGEKLSPNQQRISVVWNDDDSSTLTIYNANIDDAGIYKCVVTAEDGTQSEATVNVKIFQKLMFKNAPTPQEFKEGEDAVIVCDVVSSLPPTIIWKHKGRDVILKKDVRFIVLSNNYLQIRGIKKTDEGTYRCEGAILAAGAINFKDIQVIV	–	binding result [4]: no binding
ASTKRSMQGI [SEQ ID NO 6]	binds	–
AEGGKKKKMRA [SEQ ID NO 19]	binds	–
AKRNGPLINRI [SEQ ID NO 10]	binds	–
AGSAVKLKKKA [SEQ ID NO 4]	binds	–
AKKERQRKDTQ [D3 peptide (SEQ ID NO:2)]	binds	–
AKKEKPNKPND [SEQ ID NO 17]	binds	–
APKLDRMLTKK [SEQ ID NO 16]	binds	–
ATNKKTGRRPR [SEQ ID NO 9]	binds	–
ASKKPKRNIKA [C3 peptide (SEQ ID NO:1)]	binds	–
